For one protein, Km results are on record in article PMC3605045, “GH1-family 6-P-β-glucosidases from human microbiome lactic acid bacteria” (Acta Crystallographica Section D: Biological Crystallography, 2013).

Substrate in the data set: O=P(O)(O)OC[C@H]1O[C@@H](Oc2ccccc2CO)[C@H](O)[C@@H](O)[C@@H]1O
As to the kind of experiment: purified protein. Format: biochemical, Streptococcus mutans. Particulars: 0.1 M HEPES-NaOH pH 8.0, 2 mM NADP+, 298 K, SeMet-labelled enzyme 0.02 µM, substrate 10-2000 µM, 25.0 °C.

B1: SmBgl (Streptococcus mutans UA159) (protein)
chain: MSKLPENFLWGGAVAAHQLEGGWQEGGKGISVADVMTAGRHGVAREITAGVLEGKYYPNHEAIDFYHHYKEDVKLFAEMGFKCFRTSIAWTRIFPKGDEAEPNEAGLQFYDDLFDECLKYGIEPVVTLSHFELPYHLVTEYGGFTNRKVIDFFVHFAEVCFRRYKDKVKYWMTFNEINNQANYQEDFAPFTNSGIVYKEGDDREAIMYQAAHYELVASARAVKIGHAINPNLNIGCMVAMCPIYPATCNPKDILMAQKAMQKRYYFADVHVHGFYPEHIFKYWERKAIKVDFTERDKKDLFEGTVDYIGFSYYMSFVIDAHRENNPYYDYLETEDLVKNPYVKASDWDWQIDPQGLRYALNWFTDMYHLPLFIVENGFGAIDQVEADGMVHDDYRIDYLGAHIKEMIKAVDEDGVELMGYTPWGCIDLVSAGTGEMRKRYGFIYVDKDDEGKGTLKRSPKLSFNWYKEVIASNGDDI
notes: full length, 477 residues, ~55 kDa, homodimer; His6 cut by TEV, SNA- left at N-terminus; E. coli BL21 (DE3) Magic, pMCSG7; SeMet-labelled protein in kinetic assays
As a reminder, the Km is the substrate concentration at which the rate is half of its maximum. As to B1, the Michaelis-Menten constant (Km) was found to be 1020 ± 70 µM.
